Results from patent publication US20250154198A1, “PEPTIDE INHIBITORS OF INTERLEUKIN-23 RECEPTOR” (Zealand Pharma A/S, priority 2021, published 2025).
*1 amine or outer side, *2 acyl side, *3 side chain or, on linkers, in order; H or OH if unused. Where a SMILES comes first, the peptide text is derived from it. Bridges are numbered along the chain shown (N, C = ends). [ ]: non-standard residue; d: D form. 1,3‑dibromopropan‑2‑one = linker (CAS 816-39-7) joining two Cys as 1,3-dithio-propan-2-one bridge -SCH2C(=O)CH2S-; Ala(quinolin-3-yl) = N[C@@H](Cc1cnc2ccccc2c1)C(=O)O; Trp(7-Me) = Cc1cccc2c(C[C@H](N)C(=O)O)c[nH]c12; 2Nal = N[C@@H](Cc1ccc2ccccc2c1)C(=O)O; AEF = NCCOc1ccc(C[C@H](N)C(=O)O)cc1; X1 = O=C(Cc1ccc(CN[*:1])cc1)[*:2]; 3Pal = N[C@@H](Cc1cccnc1)C(=O)O; αMeL = CC(C)C[C@](C)(N)C(=O)O; CH2COCH2 = O=C(C[*:1])C[*:2]; αMeV = CC(C)[C@](C)(N)C(=O)O; 3Amb = NCc1cccc(C(=O)O)c1; Orn = NCCC[C@H](N)C(=O)O; Dab = NCC[C@H](N)C(=O)O

T1: human IL-23R (Homo sapiens, UniProt Q5VWK5)
T1 construct: UniProtKB—Q5VWK5, amino acids 22-629; secretion signal of the plasmid (Promega N1371); expressed in transfected cells
T1 sequence (Q5VWK5 22-629): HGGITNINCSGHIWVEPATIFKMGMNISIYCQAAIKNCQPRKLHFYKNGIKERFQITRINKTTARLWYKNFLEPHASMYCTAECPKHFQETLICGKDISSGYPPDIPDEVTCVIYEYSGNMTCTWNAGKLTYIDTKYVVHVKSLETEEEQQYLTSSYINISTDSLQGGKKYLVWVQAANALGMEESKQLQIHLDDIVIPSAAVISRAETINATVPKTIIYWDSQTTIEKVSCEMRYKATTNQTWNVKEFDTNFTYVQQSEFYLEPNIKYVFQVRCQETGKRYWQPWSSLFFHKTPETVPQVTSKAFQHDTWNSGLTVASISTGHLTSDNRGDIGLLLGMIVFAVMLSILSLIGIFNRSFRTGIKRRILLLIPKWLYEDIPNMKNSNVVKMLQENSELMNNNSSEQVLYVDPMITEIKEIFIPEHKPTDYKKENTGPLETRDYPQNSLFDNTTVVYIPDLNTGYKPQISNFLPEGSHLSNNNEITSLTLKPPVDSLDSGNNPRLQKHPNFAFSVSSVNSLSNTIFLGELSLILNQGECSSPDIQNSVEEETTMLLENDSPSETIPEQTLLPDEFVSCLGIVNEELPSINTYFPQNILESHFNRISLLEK

T2: human IL-23R endogenously expressed on DB cells (CRL-2289) (human, UniProt Q5VWK5 24-629)
T2 sequence (looked up): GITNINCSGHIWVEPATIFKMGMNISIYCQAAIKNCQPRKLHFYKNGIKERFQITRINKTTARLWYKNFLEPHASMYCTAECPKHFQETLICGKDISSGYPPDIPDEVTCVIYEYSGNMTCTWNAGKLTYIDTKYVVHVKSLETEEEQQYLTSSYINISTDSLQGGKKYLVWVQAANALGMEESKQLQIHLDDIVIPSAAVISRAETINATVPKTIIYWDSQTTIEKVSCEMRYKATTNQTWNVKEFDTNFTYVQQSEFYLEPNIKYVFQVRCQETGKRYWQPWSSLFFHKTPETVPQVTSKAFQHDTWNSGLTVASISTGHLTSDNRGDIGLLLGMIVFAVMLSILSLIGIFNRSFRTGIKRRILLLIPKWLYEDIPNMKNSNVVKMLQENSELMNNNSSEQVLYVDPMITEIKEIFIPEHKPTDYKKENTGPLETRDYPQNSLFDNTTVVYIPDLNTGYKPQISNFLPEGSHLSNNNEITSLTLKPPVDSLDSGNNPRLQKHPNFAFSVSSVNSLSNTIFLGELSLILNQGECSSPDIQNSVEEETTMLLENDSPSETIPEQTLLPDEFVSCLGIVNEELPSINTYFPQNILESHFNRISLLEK

B1: Ref 2 (peptide)
peptide: DESSWQSWWLKR
HELM: PEPTIDE1{D.E.S.S.W.Q.S.W.W.L.K.R.[am]}$PEPTIDE1,PEPTIDE1,2:R3-11:R3$$$V2.0
SMILES: CC(C)C[C@@H]1NC(=O)[C@H](Cc2c[nH]c3ccccc23)NC(=O)[C@H](Cc2c[nH]c3ccccc23)NC(=O)[C@H](CO)NC(=O)[C@H](CCC(N)=O)NC(=O)[C@H](Cc2c[nH]c3ccccc23)NC(=O)[C@H](CO)NC(=O)[C@H](CO)NC(=O)[C@@H](NC(=O)[C@@H](N)CC(=O)O)CCC(=O)NCCCC[C@@H](C(=O)N[C@@H](CCCNC(=N)N)C(N)=O)NC1=O
B2: Ref 3 (peptide)
peptide: DESTWQYWWLKR
HELM: PEPTIDE1{D.E.S.T.W.Q.Y.W.W.L.K.R.[am]}$PEPTIDE1,PEPTIDE1,2:R3-11:R3$$$V2.0
SMILES: CC(C)C[C@@H]1NC(=O)[C@H](Cc2c[nH]c3ccccc23)NC(=O)[C@H](Cc2c[nH]c3ccccc23)NC(=O)[C@H](Cc2ccc(O)cc2)NC(=O)[C@H](CCC(N)=O)NC(=O)[C@H](Cc2c[nH]c3ccccc23)NC(=O)[C@H]([C@@H](C)O)NC(=O)[C@H](CO)NC(=O)[C@@H](NC(=O)[C@@H](N)CC(=O)O)CCC(=O)NCCCC[C@@H](C(=O)N[C@@H](CCCNC(=N)N)C(N)=O)NC1=O
B3: Ref 4 (peptide)
peptide: DESMWQMWWLKR
HELM: PEPTIDE1{[ac].D.E.S.M.W.Q.M.W.W.L.K.R.[am]}$PEPTIDE1,PEPTIDE1,3:R3-12:R3$$$V2.0
SMILES: CSCC[C@@H]1NC(=O)[C@H](CO)NC(=O)[C@@H](NC(=O)[C@H](CC(=O)O)NC(C)=O)CCC(=O)NCCCC[C@@H](C(=O)N[C@@H](CCCNC(=N)N)C(N)=O)NC(=O)[C@H](CC(C)C)NC(=O)[C@H](Cc2c[nH]c3ccccc23)NC(=O)[C@H](Cc2c[nH]c3ccccc23)NC(=O)[C@H](CCSC)NC(=O)[C@H](CCC(N)=O)NC(=O)[C@H](Cc2c[nH]c3ccccc23)NC1=O

Assays:
human IL-23R = target: T1, human IL-23R; assay: Binding assay (NanoBRET displacement of fluorophore-labelled reference compound) for estimating binding affinity to human IL-23R; conditions: Table 3-1; read-out: Ki hIL-23R
Source text: Binding Assay for Estimating Binding Affinity of Compounds to Human IL-23R
The compound binding affinity for IL-23R was estimated by the ability of compounds to displace a fluorophore-labelled reference compound from the human IL-23R. The assay principle relies on Bioluminescence Resonance Energy Transfer (BRET) between a fluorophore-labelled reference compound binding to the IL-23R part of a fusion protein consisting of the IL-23R fused to a Nanoluc luciferase enzyme (Nanoluc). The Nanoluc is placed in the N-terminus in close proximity to the binding domain of the ligand. Upon close proximity between the fluorophore of the fluorophore-labelled compound and the Nanoluc of the fusion protein, bioluminescence energy generated from conversion of a Nanoluc substrate, is transferred to the fluorophore resulting in an increase in BRET. In presence of an unlabelled compound, the unlabelled compound displaces the fluorophore-labelled peptide from its binding site resulting in a decrease in BRET. The concentration for which half of the fluorophore-labelled peptide is displaced by the unlabelled compound depends on the affinity of the compound for the IL-23R, and is termed the IC50 concentration. An estimated affinity (K) of the unlabelled compound for the IL-23R may be calculated using the Cheng-Prussov equation, which takes into account the concentration of the fluorophore-labelled compound used, and the affinity of the fluorophore-labelled compound for IL-23R.
The plasmid also contained a gene to confer resistance for the antibiotic hygromycin. A cell line stably expressing the Nluc-IL23R fusion protein was generated by transfection of HEK293 cells with the expression plasmid and selected with hygromycin for 3 weeks in Growth medium consisting of DMEM w/Glutamax-I containing, 10% V/V FBS, 1% V/V P/S, 1 mM Sodium Pyruvate, and 1×NEAA, and 0.3 mg/mL hygromycin. The remaining cells were propagated and considered a stable expressing Nluc-IL23R fusion protein pool clone.
Cells expressing the Nluc-IL23R fusion protein were expanded in Growth medium and membranes prepared by homogenization of a cell pellet from 18 T175 flasks (4° C. in subsequent steps). The cell pellet was lysed Tris 10 mM, 7.5, 1 mM EDTA and protease inhibitors (Complete, Roche) and homogenized using a 15 mL glass-dounce by 50 strokes. The homogenate was spun at spin @1500 rpm for 10 min, the supernatant transferred to SV-34 tubes and spun at 40000 g for 20 min at 4° C. to pellet the crude membranes. The supernatant was then removed, the pellet resuspended in 5 mL buffer containing 50 mM HEPES pH 7.4, 5 mM EGTA, and 5 mM MgCl2, and homogenized. Aliquots of the resuspended and homogenized membranes containing the Nluc-IL23R fusion protein were stored at −80° C. until use.
The plate was sealed with light impermeable plate seals, and incubated on a orbital shaker 400 rpm for 2 hours at room temperature. To determine the BRET ratio, the plate seal was removed and 25 μL of the Nanoluc substrate (Promega N1572) diluted 1:500 was added to each well and incubated for 1-2 minutes on an orbital shaker at 400 rpm. […] The BRET ratio was calculated as the fluorescence from the TAMRA/nanoluc bioluminescence. The IC50 for each compound was determined by computer-aided curve fitting using a 4-parameter logistic (4PL) non-linear model.

[1] = target: T2, human IL-23R endogenously expressed on …; assay: cell-based or functional assay

Molecule	Ki (human IL-23R)	IC50 (pSTAT3) [1]
CC(C)C[C@]1(C)NC(=O)[C@H](Cc2ccc3ccccc3c2)NC(=O)[C@H](Cc2ccc(OCCN)cc2)NC(=O)[C@@H]2CCCNC(=O)CC[C@H](NC(=O)[C@H](CO)NC(=O)c3cccc(c3)CNC(=O)CC[C@@H](C(=O)N[C@@H](CCCNC(=N)N)C(N)=O)NC1=O)C(=O)N[C@@H](Cc1c[nH]c3ccccc13)C(=O)N[C@@H](CCC(N)=O)C(=O)N2 [Compound 69, [(3-Aminomethyl)benzoyl](1c)*SE(2c)WQ[Orn](2c)[Y(2-aminoethoxy)][2-Nal][2-Me-Leu]E(1c)R-[NH2]] ([3Amb]SEWQ[Orn][AEF][2Nal][αMeL]ER-NH2; lactam 3-6, N-10)	2.76 nM	
CC[C@H](C)[C@@H]1NC(=O)Cc2ccc(cc2)CNC(=O)CC[C@@H](C(=O)N[C@@H](CCN)C(=O)N[C@@H](Cc2cccnc2)C(N)=O)NC(=O)[C@](C)(C(C)C)NC(=O)[C@H](Cc2ccc3ccccc3c2)NC(=O)[C@H](Cc2ccc(OCCN)cc2)NC(=O)[C@@H]2CCNC(=O)CC[C@H](NC1=O)C(=O)N[C@@H](Cc1c[nH]c3ccccc13)C(=O)N[C@@H](CCC(N)=O)C(=O)N2 [Compound 157, [4-Aminomethyl-phenylacetyl](1c)*IE(2c)WQ[Dab](2c)[Y(2-aminoethoxy)][2-Nal][2-Me-Val]E(1c)[Dab][3-(3-Pyridyl)-Ala]-[NH2]] ([X1]IEWQ[Dab][AEF][2Nal][αMeV]E[Dab][3Pal]-NH2; lactam 3-6, N-10)	0.0117 nM	
Cc1cccc2c(C[C@@H]3NC(=O)[C@@H]4CSCC(=O)CSC[C@H](NC(=O)[C@H](CCC(N)=O)NC3=O)C(=O)N[C@@H](Cc3ccc(OCCN)cc3)C(=O)N[C@@H](Cc3ccc5ccccc5c3)C(=O)N[C@@](C)(CC(C)C)C(=O)N[C@H](C(=O)N[C@@H](CCCNC(=N)N)C(N)=O)CCC(=O)NCc3cccc(c3)C(=O)N[C@@H](CO)C(=O)N4)c[nH]c12 [Compound 70, [(3-Aminomethyl)benzoyl](1c)*SC(2a)[7-Me-Trp]QC(2a)[Y(2-aminoethoxy)][2-Nal][2-Me-Leu]E(1c)R-[NH2]] ([3Amb]SC[Trp(7-Me)]QC[AEF][2Nal][αMeL]ER-NH2; linker 3-6 via CH2COCH2; lactam N-10)	0.485 nM	
CC(C)C[C@]1(C)NC(=O)[C@H](Cc2ccc3ccccc3c2)NC(=O)[C@H](Cc2ccc(OCCN)cc2)NC(=O)[C@@H]2CSCC(=O)CSC[C@H](NC(=O)[C@H](CO)NC(=O)c3cccc(c3)CNC(=O)CC[C@@H](C(=O)N[C@@H](CCCNC(=N)N)C(=O)N[C@@H](Cc3cnc4ccccc4c3)C(N)=O)NC1=O)C(=O)N[C@@H](Cc1c[nH]c3ccccc13)C(=O)N[C@@H](CCC(N)=O)C(=O)N2 [Compound 149, [(3-Aminomethyl)benzoyl](1c)*SC(2a)WQC(2a)][Y(2-aminoethoxy)][2-Nal][2-Me-Leu]E(1c)R[3-(3-Quinolinyl)-Ala]-[NH2]] ([3Amb]SCWQC[AEF][2Nal][αMeL]ER[Ala(quinolin-3-yl)]-NH2; linker 3-6 via CH2COCH2; lactam N-10)	0.163 nM	
Ac-DECWQCWWLKR-NH2 (lactam 2-10; linker 3-6 via 1,3‑dibromopropan‑2‑one) [Ref 5]		> 1 µM
B1		> 1 µM
B2		> 1 µM
Ac-DESCWQCWWKR-NH2 (lactam 2-10; linker 4-7 via 1,3‑dibromopropan‑2‑one) [Ref 7]		> 1 µM
B3		> 1 µM
Ac-DESCWCWWLKR-NH2 (lactam 2-10; linker 4-6 via 1,3‑dibromopropan‑2‑one) [Ref 6]		> 1 µM
